The results in this text go back to US20160106863A1 (IMMUNOGEN, published 2016).

As a reminder, the EC50 is the midpoint of the concentration-response curve. A low value points to an effect from little substance.

Assay [1] addresses T47D cells (human) (UniProt P15328). Description: flow cytometry binding on T47D cells. On the technique in general: A flow cytometer gives signals particle by particle.
The target of assay [2] is EGFR (UniProt P00533 25-1210, limits assumed). Briefly: cell-based or functional assay.

Sequence of T47D cells (human) (P15328 25-234, stated change not applied): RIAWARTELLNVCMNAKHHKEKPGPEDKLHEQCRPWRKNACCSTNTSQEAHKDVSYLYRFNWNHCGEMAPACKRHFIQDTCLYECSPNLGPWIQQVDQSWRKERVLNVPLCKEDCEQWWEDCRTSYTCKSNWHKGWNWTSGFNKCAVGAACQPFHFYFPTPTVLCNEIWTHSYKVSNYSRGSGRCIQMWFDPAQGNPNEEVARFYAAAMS

As for huMOV19 antibody, the EC50 in assay [1] was determined as 0.203 nM.

B1: huML66-sulfo-SPDB-1d conjugate (antibody, human IgG1, kappa, V domains shown)
VH: QVQLQESGPGLVKPSETLSLTCTVSGLSLASNSVSWIRQPPGKGLEWMGVIWNHGGTDYNPSIKSRLSISRDTSKSQVFLKMNSLTAADTAMYFCVRKGGIYFDYWGQGVLVTVSS
VL: DTVLTQSPSLAVSPGERATISCRASESVSTLMHWYQQKPGQQPKLLIYLASHRESGVPARFSGSGSGTDFTLTIDPMEAEDTATYYCQQSRNDPWTFGQGTKLELKR
modifications: compound 1d linked via sulfo-SPDB linker, average of 3.0 molecules per antibody; attachment residues not stated
Take B1: in assay [2], the “EC50 in pM, in vitro cytotoxicity (WST-8), Detroit562 cells” value was 110 pM; the “EC50 in pM, in vitro cytotoxicity (WST-8), Detroit562 cells, + block (excess unconjugated antibody)” value is 960 pM; the “EC50 in pM, in vitro cytotoxicity (WST-8), NCI-H292 cells” value was determined as 20 pM; the “EC50 in pM, in vitro cytotoxicity (WST-8), NCI-H292 cells, + block (excess unconjugated antibody)” value came out at 690 pM. In assay [2], the “EC50 in pM, in vitro cytotoxicity (WST-8), NCI-H1703 cells” value turned out to be 70 pM and the “EC50 in pM, in vitro cytotoxicity (WST-8), NCI-H1703 cells, + block (excess unconjugated antibody)” value is 1310 pM.
